{
  "source": "the RNAGym collection of RNA variant scans (doi:10.1073/pnas.2313332121)",
  "parents": {"B1": {"name": "TPR 5TU (parent)", "chain": "GGAUCUUCUCGAUCUAACAAAAAAGACAAAUCUGCCACAAAGCUUGAGAGCAUCUUCGGAUGCAGAGGCGGCAGCCUUCGGUGGCGCGAUAGCGCCAACGUUCUCAACUAUGACACGCAAAACGCGUGCUCCGUUGAAUGGAGUUUAUCAUG"}},
  "note": "This sample holds only a part of the variants without activity.",
  "data": [
    {"variants_of": "B1", "assay": "polymerase ribozyme fitness, log enrichment relative to wild type (log ratio); higher = more active; in vitro selection for triplet polymerase activity", "summary_of_the_method": "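After PCR construction and transcription, each subunit's mutant library from a heterodimeric triplet polymerase ribozyme was annealed with a biotinylated primer, the partner subunit and triplets. Incubation was frozen, at −7 °C, and extended constructs were gel-excised, bound to streptavidin beads and amplified by RT-PCR, in one selection round done in triplicate. Fitness is the logarithm of a genotype's enrichment divided by that of the wild type, from inverse-variance-weighted replicate averages of Illumina-sequenced inputs and outputs. The base of the logarithm is 2, and genotypes needed ≥10 input reads and ≥1 read per output.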", "values": [
      {"variant": "GGAUCUUCUCGAUCGAACAAAAAAGACAAAUCUGCCACUAAGCUUGAGAGCAUCUUCGGAUGCAGAGGCGGCAGCCUUCGGGGACGCGAUAGCGCCAACGUUCUCAACUAUUACACGCAAAACGCGUGCUCCGUUGAAUGGAGUUUAUCAUG", "note": "[U15G A39U U82G G84A G112U]", "polymerase ribozyme fitness (log ratio)": "≤ -4.2"},
      {"variant": "GGAUCUUCUCGAUCGAACAAAAAAGACAAAUCUGCCACAGAGCUUGAGAGCAUCUUCGGAUGCAGAGGCGGCAGCCUUCGGUGGCGCGAUAGCGCUGACGUUCUCAACUAUGACACGCAAAACGCGUGCUCCGUUGAAUGAAGUUUAUCAUG", "note": "[U15G A40G C96U A97G G141A]", "polymerase ribozyme fitness (log ratio)": -3.18},
      {"variant": "GGAUCUUCUCGAUCGAACAAAAAAGACGAAUCUGCCACAAAGCUUGAGAGCAUCUUCGGAUGCAGAGGCGGCAGCCUUAGGUGGCGCGAUAGCGCCAACGUUCUCAACUAUGACACGCAAAACUCGUGCUCCGUUGAAUGGAGUUUAUCAUG", "note": "[U15G A28G C79A G124U]", "polymerase ribozyme fitness (log ratio)": "≤ -4.2"},
      {"variant": "GGAUCUUCUCGAUCGAACAAAAAAGACAAAUCUGCCACAAAGCUUGAGAGCAUCUUCGGAUGCAGAGGCGGCAGCCUUCGGUGGCGCGAUAGCGCCAACGUUCUCAACUGUGACACGCAAAACGCGUGCUCCGUUGAAUGGAGUUUAUCAUG", "note": "[U15G A110G]", "polymerase ribozyme fitness (log ratio)": -3.59},
      {"variant": "GGAUCUUCUCGAUCGAACAAAAAAGACAAAUCUGCCCCAAAGCUUGCGAGCAUCUUCGGAUGCAGAGGCGGCAGCCUUCGGUGGCGCGAUAGCGUCAACGUUCUCAACUAUGACACGCAAAACGCGUGCUCCGUUGAAUGGAGUUUAUCAUG", "note": "[U15G A37C A47C C95U]", "polymerase ribozyme fitness (log ratio)": -1.64},
      {"variant": "GGAUCUUCUCGAUCGAACAAAAAAGACAAAUCUGCCACAAAGCUUGAGAGCCUCUUCGGAUGCAGAGGCGGCAGCCUUCGGUGGCGCGAUAGCGCUAACGGUCUCAACUAUGACACGCAAAACGCGUGAUCCGUUGAAUGGAGUUUAUCAUG", "note": "[U15G A52C C96U U101G C129A]", "polymerase ribozyme fitness (log ratio)": "≤ -4.2"},
      {"variant": "GGAUCUUCUCGAUCGAACAAAAAAGACAAAUCUGCCACAAAGCUUGAGCGCAUCUUCGGAUGCACAGGCGGCAGCCUUCGGUGGCGCGAUAGCGCCAACGUUCUCAACUAUGACACGCACAACGCGUGCUCCGUUGAAUGGCGUUUAUCAUG", "note": "[U15G A49C G65C A120C A142C]", "polymerase ribozyme fitness (log ratio)": "≤ -4.2"},
      {"variant": "GGAUCUUCUCGAUCGAACAAAAAAGUCAAAUCUGCCAGAAAACAUGAGAGCAUCUUCGGAUGCAGAGGCGGCAGCCUUCGGUGGCGCGAUAGCGGCAAUGUUCUCAACUAUGACACGCAAAACGCGUGCUCCGUUGAAUGGAGUUUAUCAUG", "note": "[U15G A26U C38G G42A U44A C95G C99U]", "polymerase ribozyme fitness (log ratio)": "≤ -4.2"},
      {"variant": "GGAUCUUCUCGAUCGAACAAAAAAGAUAAAUCUGCCACAAAGCUUGAGAGCAUCUUCGGAUGCAGAGGCGGCAGCCUUCGGUAGCGCGAUAGCGCCAACGUUCUCAACUAUGACACGCAACACGCGUGCUCCGUUGAAUGGAGUUUAUCAUG", "note": "[U15G C27U G83A A121C]", "polymerase ribozyme fitness (log ratio)": -2.52},
      {"variant": "GGAUCUUCUCGAUCGAACAAAAAAGACAAAUCUGCCACAAAGCUUGAGAGCAUCUUCGGAUGCAGAGGCGGCAGCCUUCGGUGGCGCGCUAGCGCCAACGUUCUCAACUAUGACACGCUAAACGCGUGCUCCGUUGAAUGGAGUUUAUCAUG", "note": "[U15G A89C A119U]", "polymerase ribozyme fitness (log ratio)": -0.888},
      {"variant": "GGAUCUUCUCGAUCGAAGAAAAAAGACAAAUCUGCCACAAAGCUUGAGACCAGCUUCGGAUGCAGAGGCGGCAGCCUUCGGUGGCGCGAUAACGCCAACGUUCUCAACUAUGACACGCAAAACGCGUGCUCCGUUGAAUGGAGUUUAGCAUG", "note": "[U15G C18G G50C U53G G92A U148G]", "polymerase ribozyme fitness (log ratio)": "≤ -4.2"},
      {"variant": "GGAUCUUCUCGAUCGAACAAAAAAGACAAAUCUGCCACUAAGCUUGAGAGCAUCUUCGGAUGCAGAGGCGGUAGCCUUCGGUGGCGCGAUUGCGCCAACGUUCUCAACUAUGACACGCAAAACGCGUGCUCCGUUGAAUGGAGUUUUUCCUG", "note": "[U15G A39U C72U A91U A147U A150C]", "polymerase ribozyme fitness (log ratio)": "≤ -4.2"},
      {"variant": "GGAUCUUCUCGAUCGAACAAAAAAGACAAAUCUGCCACGAAGCUUGAGAGCAACUUCGGAUGCAGAGGCGGCAGCCUUCGGUGGCGCGAUAGCGCCAACGUUCUCAACUAUGACACGCAAAACGCGUGCUCCGUUGAAUGGAGUUUAUCAUG", "note": "[U15G A39G U53A]", "polymerase ribozyme fitness (log ratio)": -4.01},
      {"variant": "GGAUCUUCUCGAUCGAACAAAAAAGACAAAUCUGCCUCAAAGCUUGAGAGCAUCACCGGAUGCAGAGGCGGCAGCCUUCGGUGGCGGGAUAGCGUCAACGUUCUCGACUAUGACACGCAAAACGCGUGCUCCGUUAAAUGGAGUGUAUCAUG", "note": "[U15G A37U U55A U56C C87G C95U A106G G136A U145G]", "polymerase ribozyme fitness (log ratio)": "≤ -4.2"},
      {"variant": "GGAUCUUCUCGAUCGAACAAAAACGACAAAUCUGACACAAAGCUUGAGAGCAUCUUCGGAUGCAGAGGCGGCAGCCUUCGGUGGCGCGAUAGCGCCAACGUUCUCAUCUAUGACACGCAAAACGCGUGCUCCGUUGAAUGGAGUUUUUCAUG", "note": "[U15G A24C C35A A107U A147U]", "polymerase ribozyme fitness (log ratio)": "≤ -4.2"},
      {"variant": "GGAUCUUCUCGAUCGAACAAAAAAGAAAAAUCUGCCACAAAGCUUGAGAGCAUCUUCGGAUGCAGAGGCGGCAGCCUUCGGUGGCGCGAUAGCGCCAACGUUCUCAACUAUGACACGCAAAACGCGUGCUCCGUUGAAUGGAGUUAAUCAUG", "note": "[U15G C27A U146A]", "polymerase ribozyme fitness (log ratio)": "≤ -4.2"},
      {"variant": "GGAUCUUCUCGAUCGAACAAAAAAGACUAAUCUGCCACAAAGCUUCAGAGCAUCUUUGGAUGCAGAGGCGGCAGCCUUCGGUGGAUCGAAAGCGUCAACGUUCUUAACUAUGACACGCAAAACGCGUGCUCCGUUGAAUGGAGUUUAUCAUG", "note": "[U15G A28U G46C C57U C85A G86U U90A C95U C105U]", "polymerase ribozyme fitness (log ratio)": "≤ -4.2"},
      {"variant": "GGAUCUUCUCGAUCGAACAAACAAGACAAAUCUGCCACAAAGCUUGAGAGCAUCUUCGGGUGCAGAGGCGGCUGCGUUCGGUGGCGCGAUAGCGCCAACGUUAUCAACUAUGACACGCAAAUCGCGUGCUCCGUUGAAUGGAGUUUAUCAAG", "note": "[U15G A22C A60G A73U C76G C103A A122U U151A]", "polymerase ribozyme fitness (log ratio)": "≤ -4.2"},
      {"variant": "GGAUCUUCUCGAUCGAACAAAAAAGACAAAUCUGCCACAAAGCUUGCGAGCAUCUUUGGAUGCAGAGGCGGCAGCCUUCGGUGGCGCGAUAGCGCAAACGUUCUCAAGUAUGACACGCAAAACGCGUGCUCCGUUGAAUGGAGUUUAUCAUG", "note": "[U15G A47C C57U C96A C108G]", "polymerase ribozyme fitness (log ratio)": "≤ -4.2"}
    ]}
  ]
}
